Results as given in patent US20240327815A1.

Legend:
[1] = molecular target: B.1.1.7 (Alpha) SARS-CoV-2 spike protein, plate-coated (MSD) (SARS-CoV-2) (UniProt P0DTC2); assay: MSD competition vs labelled ACE2
[2] = molecular target: Delta SARS-CoV-2 spike protein, plate-coated (MSD) (SARS-CoV-2) (UniProt P0DTC2); assay: MSD competition vs labelled ACE2
[3] = molecular target: B.1.351 (Beta) SARS-CoV-2 spike protein, plate-coated (MSD) (SARS-CoV-2) (UniProt P0DTC2); assay: MSD competition vs labelled ACE2
[4] = molecular target: Omicron SARS-CoV-2 spike protein, plate-coated (MSD) (SARS-CoV-2) (UniProt P0DTC2); assay: MSD competition vs labelled ACE2
[5] = molecular target: SARS-CoV-2 Delta (B.1.617.2) spike RBD (SPR) (SARS-CoV-2) (UniProt P0DTC2); assay: SPR
[6] = molecular target: SARS-CoV-2 Delta (B.1.617.2) spike RBD (SPR) (SARS-CoV-2) (UniProt P0DTC2); assay: SPR, 1:1 model
[7] = molecular target: Beta SARS-CoV-2 spike on pseudotyped lentivirus (SARS-CoV-2) (UniProt P0DTC2); assay: cell-based or functional assay
[8] = molecular target: Alpha SARS-CoV-2 spike on pseudotyped lentivirus (SARS-CoV-2) (UniProt P0DTC2); assay: cell-based or functional assay

Bamlanivimab + Etesevimab
IC50 [1]: 0.08 nM
IC50 [2]: 0.16 nM
IC50 [3]: 0.31 nM
IC50 [4]: 0.59 nM

REGN10933 (Casirivimab) (antibody)
Kd [5]: 0.0696 nM
Kd [6]: 0.0696 nM

REGN10987 (Imdevimab) (antibody)
Kd [5]: 0.105 nM
Kd [6]: 0.105 nM

Sotrovimab (antibody)
Pseudovirus Neutralization (IC50, nM) [7]: 0.01 nM
Pseudovirus Neutralization (IC50, nM) [8]: 3.32 nM
